The text below walks through data of publication doi:10.1101/2024.06.03.596960 (bioRxiv, 2024).

The target of series [1] is biotinylated ^AviSKP1-FBXO22(12-403) (UniProt P63208). The series is described as follows: BLI. In general terms: Biolayer interferometry detects binding as a change in optical thickness at a sensor tip.
Series [2] shares this target. The series can be described thus: SPR. For orientation: SPR reads the build-up and loss of mass on a sensor chip optically.
Series [3] deals with BACH1 BTB domain (residues 7-128), wild type, tag-free (UniProt O14867). The series can be described thus: SEC-MALS. In general terms: Size exclusion chromatography separates by hydrodynamic size, large species first.
The target in series [4] is BACH1^BTB A53V mutant (cancer-associated, TCGA) (UniProt O14867). The series can be described thus: SEC-MALS.
A further series concerns the target BACH1^BTB E12R (UniProt O14867). The series can be described thus: SEC-MALS.
The next series has as its target BACH1^BTB F9A (UniProt O14867). The series is described as follows: SEC-MALS.
The target in the next series is BACH1^BTB S13A (UniProt O14867). The series can be described thus: SEC-MALS.
The next series deals with BACH1^BTB S13D (UniProt O14867). The series is described as follows: SEC-MALS.
For another series, the target named is BACH1^BTB Y11A (UniProt O14867). The series is described as follows: SEC-MALS.
A further series concerns the target BACH1^BTB Y11F (UniProt O14867). The series can be described thus: SEC-MALS.
Series [5] concerns the target BACH1^BTB Y11H mutant (cancer-associated, TCGA) (UniProt O14867). The series is described as follows: SEC-MALS.
A further series addresses BTFA-modified BACH1^BTB (UniProt O14867).
The target in series [6] is BACH1 BTB domain (residues 7-128), wild type, tag-free (UniProt O14867). The series can be described thus: NMR titration.
In a further series the target is His10-TEV-BACH1^BTB (UniProt O14867). The series is described as follows: AlphaScreen or HTRF.
For series [7], the target named is SKP1-FBXO22 heterodimer, wild type, tag-free (UniProt P63208). The series is described as follows: mass photometry.
Chain of SKP1-FBXO22 heterodimer, wild type, tag-free (UniProt P63208) (P63208 2-163, chain 1 of 2): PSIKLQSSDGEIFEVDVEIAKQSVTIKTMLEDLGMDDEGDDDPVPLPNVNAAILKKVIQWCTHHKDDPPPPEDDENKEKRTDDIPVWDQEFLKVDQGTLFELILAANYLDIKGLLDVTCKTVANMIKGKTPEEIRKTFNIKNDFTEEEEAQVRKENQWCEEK
Chain of SKP1-FBXO22 heterodimer, wild type, tag-free (UniProt P63208) (Q8NEZ5 12-403, chain 2 of 2, further chain): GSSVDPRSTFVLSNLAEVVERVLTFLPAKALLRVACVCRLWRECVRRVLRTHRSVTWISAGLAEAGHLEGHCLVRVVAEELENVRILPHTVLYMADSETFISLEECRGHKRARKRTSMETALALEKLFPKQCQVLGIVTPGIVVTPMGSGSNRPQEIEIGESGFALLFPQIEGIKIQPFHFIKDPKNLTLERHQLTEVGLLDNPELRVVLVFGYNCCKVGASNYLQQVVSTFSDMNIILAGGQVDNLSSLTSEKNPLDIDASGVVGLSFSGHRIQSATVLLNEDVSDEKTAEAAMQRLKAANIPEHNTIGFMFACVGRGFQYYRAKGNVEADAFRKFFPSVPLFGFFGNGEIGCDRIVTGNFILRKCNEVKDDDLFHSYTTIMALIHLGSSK
The series “mass photometry” concerns the molecule itself. The series is described as follows: mass photometry.

The term Kd denotes the constant that tells how readily two partners part at equilibrium. Higher therefore signals lower affinity. The term stoichiometry N denotes the number of molecules, sites or subunits per partner or assembly. The term IC50 denotes the concentration needed to halve the response being measured. The koff is a measure of how fast the partners let go of each other. Lower therefore signals slow dissociation. Broadly, the kon is the second-order rate constant of association. A higher kon goes with fast association.

Several values for one entry are separate records, joined by “and”; a condition that tells them apart may be missing. Identical values can stand only once.

Chain of biotinylated ^AviSKP1-FBXO22(12-403) (P63208 2-163, chain 1 of 2): as the sequence (P63208 2-163, chain 1 of 2) above
Chain of biotinylated ^AviSKP1-FBXO22(12-403) (Q8NEZ5 12-403, chain 2 of 2, further chain): as the sequence (Q8NEZ5 12-403, chain 2 of 2, further chain) above

Regarding “BACH1 BTB domain (residues 7-128), wild type, tag-free (from UniProt O14867 7-128) (domain or fragment)”, the Kd in series [1] is 124 nM and 83.9 nM; in series [2] it was 57.7 nM. Moreover, in series [3], the stoichiometry N was found to be 2.

With “BACH1^BTB A53V mutant (cancer-associated, TCGA) (from UniProt O14867 7-128) (domain or fragment)”, the stoichiometry N in [4] was found to be 2.

Molecule “BACH1^BTB E12R (from UniProt O14867 7-128) (domain or fragment)” returned a stoichiometry N with BACH1^BTB E12R of 2.

Consider “BACH1^BTB F9A (from UniProt O14867 7-128) (domain or fragment)”, for which the stoichiometry N with BACH1^BTB F9A was 2.

Turning to “BACH1^BTB S13A (from UniProt O14867 7-128) (domain or fragment)”, the stoichiometry N in the series with BACH1^BTB S13A amounted to 2.

Take “BACH1^BTB S13D (from UniProt O14867 7-128) (domain or fragment)”: the stoichiometry N in the series with BACH1^BTB S13D came to 2.

For “BACH1^BTB Y11A (from UniProt O14867 7-128) (domain or fragment)”, the stoichiometry N in the series with BACH1^BTB Y11A was 2.

For the molecule “BACH1^BTB Y11F (from UniProt O14867 7-128) (domain or fragment)”, the stoichiometry N in the series with BACH1^BTB Y11F came out at 2.

In the case of “BACH1^BTB Y11H mutant (cancer-associated, TCGA) (from UniProt O14867 7-128) (domain or fragment)”, the stoichiometry N in series [5] came to 2.

The molecule “BTFA-modified BACH1^BTB (from UniProt O14867 7-128) (domain or fragment)” yielded a stoichiometry N in the series with BTFA-modified BACH1^BTB of 2.

For “SKP1-FBXO22 heterodimer, wild type, tag-free (from UniProt P63208 2-163; Q8NEZ5 12-403) (complex)”, in series [6], the stoichiometry N (equivalent SKP1-FBXO22) turned out to be 1. This molecule yielded an IC50 with His10-TEV-BACH1^BTB of 495 nM.

B1: full-length BACH1 (residues 2-736), tag-free (natural protein)
chain: SLSENSVFAYESSVHSTNVLLSLNDQRKKDVLCDVTIFVEGQRFRAHRSVLAACSSYFHSRIVGQADGELNITLPEEVTVKGFEPLIQFAYTAKLILSKENVDEVCKCVEFLSVHNIEESCFQFLKFKFLDSTADQQECPRKKCFSSHCQKTDLKLSLLDQRDLETDEVEEFLENKNVQTPQCKLRRYQGNAKASPPLQDSASQTYESMCLEKDAALALPSLCPKYRKFQKAFGTDRVRTGESSVKDIHASVQPNERSENECLGGVPECRDLQVMLKCDESKLAMEPEETKKDPASQCPTEKSEVTPFPHNSSIDPHGLYSLSLLHTYDQYGDLNFAGMQNTTVLTEKPLSGTDVQEKTFGESQDLPLKSDLGTREDSSVASSDRSSVEREVAEHLAKGFWSDICSTDTPCQMQLSPAVAKDGSEQISQKRSECPWLGIRISESPEPGQRTFTTLSSVNCPFISTLSTEGCSSNLEIGNDDYVSEPQQEPCPYACVISLGDDSETDTEGDSESCSAREQECEVKLPFNAQRIISLSRNDFQSLLKMHKLTPEQLDCIHDIRRRSKNRIAAQRCRKRKLDCIQNLESEIEKLQSEKESLLKERDHILSTLGETKQNLTGLCQKVCKEAALSQEQIQILAKYSAADCPLSFLISEKDKSTPDGELALPSIFSLSDRPPAVLPPCARGNSEPGYARGQESQQMSTATSEQAGPAEQCRQSGGISDFCQQMTDKCTTDE
Consider B1, for which, in [1], the dissociation constant Kd was 44.3 nM and 28.6 nM; the koff was 0.0021 s⁻¹; the on-rate (kon) was determined as 470000 M⁻¹ s⁻¹. For the same molecule, the stoichiometry N (BACH1^FL per SKP1-FBXO22 heterodimer) in series [7] turned out to be 2. The “stoichiometry N” value in the series “mass photometry” was found to be 2.
